The values that follow come from publication PMC9507969, “Visualizing maturation factor extraction from the nascent ribosome by the AAA-ATPase Drg1” (Nature Structural & Molecular Biology, 2022).

This assay has as its target T1, Nsa2 on the pre-60S particle (S. cerevisiae (endogenous in the yeast …, UniProt P40078 1-261)).
T1 construct: Nsa2 of S. cerevisiae; only His20 to Lys74 seen as density; source: endogenous, on pre-60S particles purified via Bud20-TAP from S. cerevisiae
T1 sequence (looked up): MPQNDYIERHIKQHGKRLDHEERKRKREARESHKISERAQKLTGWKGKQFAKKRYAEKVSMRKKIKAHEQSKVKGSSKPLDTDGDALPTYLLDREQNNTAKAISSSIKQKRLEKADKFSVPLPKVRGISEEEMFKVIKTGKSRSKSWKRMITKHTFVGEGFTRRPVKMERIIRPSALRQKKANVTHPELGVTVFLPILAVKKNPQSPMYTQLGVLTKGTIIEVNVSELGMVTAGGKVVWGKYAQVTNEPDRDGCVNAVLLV
Nature of the assay: cryo-EM structure; purified Drg1 (1.75 mg/ml, 12 µM) mixed 1:1 with 200 nM export-competent Bud20-TAP pre-60S particles, 2 mM ATPγS, 10 minutes; particle-bound Drg1 and free Drg1 hexamers picked from the same dataset. As to conditions: both partners purified.

B1: Mrt4 on the pre-60S particle (natural protein, UniProt P33201 1-236, looked up)
chain: MPRSKRSKLVTLAQTDKKGRENKERIFDEVREALDTYRYVWVLHLDDVRTPVLQEIRTSWAGSKLIMGKRKVLQKALGEKREEEYKENLYQLSKLCSGVTGLLFTDEDVNTVKEYFKSYVRSDYSRPNTKAPLTFTIPEGIVYSRGGQIPAEEDVPMIHSLEPTMRNKFEIPTKIKAGKITIDSPYLVCTEGEKLDVRQALILKQFGIAASEFKVKVSAYYDNDSSTVESTNINME
notes: Mrt4 of S. cerevisiae; source: endogenous, on pre-60S particles purified via Bud20-TAP from S. cerevisiae
For the molecule B1, the binding result is on record as “binds”.
